pKd: −log10 of the molar value.
Assays:
Experiment in all cases: IEDB peptide-MHC binding, purified MHC/competitive/radioactivity; filed as Kd, often an IC50 or EC50 that approximates it; ≥ and ≤ were set here for values at or beyond the usual limits of such assays
HLA-A*02:02 = molecular target: HLA-A*02:02
HLA-A*02:03 = molecular target: HLA-A*02:03
HLA-A*02:06 = molecular target: HLA-A*02:06
HLA-A*03:01 = molecular target: HLA-A*03:01
HLA-A*11:01 = molecular target: HLA-A*11:01
HLA-A*31:01 = molecular target: HLA-A*31:01
HLA-A*33:01 = molecular target: HLA-A*33:01
HLA-A*68:01 = molecular target: HLA-A*68:01
[1] = source organism: Vaccinia virus WR
[2] = source organism: Dengue virus 2 Jamaica/1409/1983
[3] = source organism: SARS coronavirus Tor2
[4] = source organism: Mammarenavirus whitewaterense
[5] = source organism: Mammarenavirus brazilense
[6] = source organism: Mammarenavirus lassaense

Sequence	pKd (HLA-A*02:02; [1])	pKd (HLA-A*02:03; [1])	pKd (HLA-A*02:06; [1])	other results
AITLVVISVI	6.39	6.10	5.70	–
ASAWTLYAV	–	–	–	pKd (HLA-A*02:06; [2]): 8.09
ATLNTLITL	6.43	6.24	8.02	–
AVKFAEESYT	5.75	5.83	5.64	–
CLDAGINYV	–	–	–	pKd (HLA-A*02:02; [3]): 9.24; pKd (HLA-A*02:03; [3]): 8.19; pKd (HLA-A*02:06; [3]): 8.81
CVMYASALV	–	–	–	pKd (HLA-A*02:02; [3]): 8.35; pKd (HLA-A*02:03; [3]): 8.53; pKd (HLA-A*02:06; [3]): 8.13
DAIKSNNHLT	≤ 4.56	4.75	≤ 4.16	–
DLFMSHVKSV	5.47	7.38	4.70	–
DLLLPSTDV	4.82	5.41	5.97	–
DLNAVTTNNL	5.74	5.79	5.12	–
DTSPTKRCRL	4.91	≤ 4.43	≤ 4.35	–
DVEKRILNT	5.24	5.17	≤ 4.11	–
DVFRPLFDFV	5.99	5.59	6.63	–
DVGCLLTDTI	4.97	4.81	5.00	–
ELNGKNIEDV	–	–	–	pKd (HLA-A*02:06; source organism: Homo sapiens): ≤ 4.16
EQGDIALAL	6.15	4.95	5.32	–
EQYTCNKPYT	4.85	5.52	≤ 4.34	–
EVIERINLLV	4.71	5.48	6.52	–
EVTPEYIKDL	5.82	5.64	5.12	–
FLLRGPFEAS	–	–	–	pKd (HLA-A*02:02; [4]): 7.57; pKd (HLA-A*02:03; [4]): 7.08; pKd (HLA-A*02:06; [4]): 7.15
FLTGTFVTA	8.33	9.15	8.69	–
FTKDGKLDDT	6.84	6.73	6.05	–
FVVTTDISEM	–	–	–	pKd (HLA-A*02:06; source organism: Dengue virus 3 Martinique/1243/1999): 6.53
GILIYDDNI	4.93	5.77	4.88	–
GVLPEETNI	4.76	≤ 4.69	6.24	–
HVLLPFYET	4.79	4.73	5.76	–

Sequence	pKd (HLA-A*02:02; [1])	pKd (HLA-A*02:03; [1])	pKd (HLA-A*02:06; [1])	other results
HVLLPFYETL	7.53	6.67	6.94	–
IALCKVTVPT	5.71	5.65	6.19	–
IICEDAMYYA	7.62	6.97	8.06	–
ILQMREIIT	5.39	5.87	5.91	–
ITDNGPMPYM	6.08	5.93	6.52	–
KIKQTGINNV	6.63	8.51	5.59	–
KTPLYYLSGT	≤ 4.66	5.51	5.85	–
LISLINSLV	9.32	9.32	7.14	–
LLKCVSDSWL	7.12	6.93	5.33	–
LLNVQTLISL	7.63	7.79	7.01	–
LLWFLTGTFV	8.62	8.04	7.74	–
LMLHNPTSET	≤ 4.41	5.35	4.95	–
LMTLDDLAI	7.29	7.12	6.54	–
LRYFIMAYV	–	–	–	pKd (HLA-A*02:02; [5]): 6.67; pKd (HLA-A*02:03; [5]): 6.40; pKd (HLA-A*02:06; [5]): ≤ 4.70
LTPFEKEFT	4.77	≤ 4.68	≤ 4.11	–
LTSNCTRTT	≤ 4.11	≤ 4.53	≤ 4.39	–
LTSVDIETA	5.31	4.94	6.51	–
LVMDKNHAI	7.72	6.11	6.99	–
LVQYRILPMI	4.90	5.92	6.15	–
MISTYPGNT	5.26	6.64	≤ 4.59	–
RALIFILLTA	–	–	–	pKd (HLA-A*02:06; [2]): 6.85
RLTDTEYRAR	–	–	–	pKd (HLA-A*03:01; [1]): 6.18; pKd (HLA-A*11:01; [1]): 6.10; pKd (HLA-A*31:01; [1]): 8.88; pKd (HLA-A*33:01; [1]): 6.33; pKd (HLA-A*68:01; [1]): 6.09
RLYECLYRNR	–	–	–	pKd (HLA-A*03:01; [3]): 8.16; pKd (HLA-A*11:01; [3]): 6.22; pKd (HLA-A*31:01; [3]): 8.68; pKd (HLA-A*33:01; [3]): 5.61; pKd (HLA-A*68:01; [3]): 6.64
SARNKLFKR	–	–	–	pKd (HLA-A*03:01; [1]): ≤ 4.23; pKd (HLA-A*11:01; [1]): 5.24; pKd (HLA-A*31:01; [1]): 8.90; pKd (HLA-A*33:01; [1]): 7.16; pKd (HLA-A*68:01; [1]): 6.36
SGSCLNNEK	–	–	–	pKd (HLA-A*03:01; [6]): ≤ 4.69; pKd (HLA-A*11:01; [6]): 6.25; pKd (HLA-A*31:01; [6]): ≤ 4.22; pKd (HLA-A*33:01; [6]): ≤ 4.22; pKd (HLA-A*68:01; [6]): 6.06

Reference: the Immune Epitope Database (IEDB)
